Results on 6 molecules are retold here after patent US20110166062A1 (INDIANA UNIVERSITY RESEARCH AND TECHNOLOGY, published 2011).

To fix the notation:
T1: GIP receptor (UniProt P48546 22-466)
T1 sequence (looked up): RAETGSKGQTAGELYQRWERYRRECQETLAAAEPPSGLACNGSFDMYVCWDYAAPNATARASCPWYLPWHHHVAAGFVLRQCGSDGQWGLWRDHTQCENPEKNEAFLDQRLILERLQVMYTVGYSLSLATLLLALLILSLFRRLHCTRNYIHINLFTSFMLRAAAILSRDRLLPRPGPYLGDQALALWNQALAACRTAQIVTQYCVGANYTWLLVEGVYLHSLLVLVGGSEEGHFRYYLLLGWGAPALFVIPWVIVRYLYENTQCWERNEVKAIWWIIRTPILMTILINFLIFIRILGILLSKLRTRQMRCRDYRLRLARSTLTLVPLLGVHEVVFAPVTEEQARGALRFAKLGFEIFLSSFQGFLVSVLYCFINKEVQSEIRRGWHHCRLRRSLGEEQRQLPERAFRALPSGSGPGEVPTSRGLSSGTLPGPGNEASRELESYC

B1: mt-165 (peptide)
peptide: Y[Aib]QGTFTSDYSIYLDEQAAKEFVNWLLAGGPSSGAPPPSC-NH2
modifications: lactam 16-20; N-terminus assumed
SMILES: CC[C@H](C)[C@H](NC(=O)[C@H](CO)NC(=O)[C@H](Cc1ccc(O)cc1)NC(=O)[C@H](CC(=O)O)NC(=O)[C@H](CO)NC(=O)[C@@H](NC(=O)[C@H](Cc1ccccc1)NC(=O)[C@@H](NC(=O)CNC(=O)[C@H](CCC(N)=O)NC(=O)C(C)(C)NC(=O)[C@@H](N)Cc1ccc(O)cc1)[C@@H](C)O)[C@@H](C)O)C(=O)N[C@@H](Cc1ccc(O)cc1)C(=O)N[C@@H](CC(C)C)C(=O)N[C@@H](CC(=O)O)C(=O)N[C@H]1CCC(=O)NCCCC[C@@H](C(=O)N[C@@H](CCC(=O)O)C(=O)N[C@@H](Cc2ccccc2)C(=O)N[C@H](C(=O)N[C@@H](CC(N)=O)C(=O)N[C@@H](Cc2c[nH]c3ccccc23)C(=O)N[C@@H](CC(C)C)C(=O)N[C@@H](CC(C)C)C(=O)N[C@@H](C)C(=O)NCC(=O)NCC(=O)N2CCC[C@H]2C(=O)N[C@@H](CO)C(=O)N[C@@H](CO)C(=O)NCC(=O)N[C@@H](C)C(=O)N2CCC[C@H]2C(=O)N2CCC[C@H]2C(=O)N2CCC[C@H]2C(=O)N[C@@H](CO)C(=O)N[C@@H](CS)C(N)=O)C(C)C)NC(=O)[C@H](C)NC(=O)[C@H](C)NC(=O)[C@H](CCC(N)=O)NC1=O
B2: mt-166 (peptide)
peptide: Y[dA]QGTFTSDYSIYLDEQAAKEFVNWLLAGGPSSGAPPPSC-NH2
modifications: lactam 16-20; N-terminus assumed
SMILES: CC[C@H](C)[C@H](NC(=O)[C@H](CO)NC(=O)[C@H](Cc1ccc(O)cc1)NC(=O)[C@H](CC(=O)O)NC(=O)[C@H](CO)NC(=O)[C@@H](NC(=O)[C@H](Cc1ccccc1)NC(=O)[C@@H](NC(=O)CNC(=O)[C@H](CCC(N)=O)NC(=O)[C@@H](C)NC(=O)[C@@H](N)Cc1ccc(O)cc1)[C@@H](C)O)[C@@H](C)O)C(=O)N[C@@H](Cc1ccc(O)cc1)C(=O)N[C@@H](CC(C)C)C(=O)N[C@@H](CC(=O)O)C(=O)N[C@H]1CCC(=O)NCCCC[C@@H](C(=O)N[C@@H](CCC(=O)O)C(=O)N[C@@H](Cc2ccccc2)C(=O)N[C@H](C(=O)N[C@@H](CC(N)=O)C(=O)N[C@@H](Cc2c[nH]c3ccccc23)C(=O)N[C@@H](CC(C)C)C(=O)N[C@@H](CC(C)C)C(=O)N[C@@H](C)C(=O)NCC(=O)NCC(=O)N2CCC[C@H]2C(=O)N[C@@H](CO)C(=O)N[C@@H](CO)C(=O)NCC(=O)N[C@@H](C)C(=O)N2CCC[C@H]2C(=O)N2CCC[C@H]2C(=O)N2CCC[C@H]2C(=O)N[C@@H](CO)C(=O)N[C@@H](CS)C(N)=O)C(C)C)NC(=O)[C@H](C)NC(=O)[C@H](C)NC(=O)[C@H](CCC(N)=O)NC1=O
B3: mt-168 (peptide)
peptide: YSQGTFTSDYSIYLDEQKAKEFVNWLLAGGPSSGAPPPS-NH2
modifications: lactam 18-21; N-terminus assumed
SMILES: CC[C@H](C)[C@H](NC(=O)[C@H](CO)NC(=O)[C@H](Cc1ccc(O)cc1)NC(=O)[C@H](CC(=O)O)NC(=O)[C@H](CO)NC(=O)[C@@H](NC(=O)[C@H](Cc1ccccc1)NC(=O)[C@@H](NC(=O)CNC(=O)[C@H](CCC(N)=O)NC(=O)[C@H](CO)NC(=O)[C@@H](N)Cc1ccc(O)cc1)[C@@H](C)O)[C@@H](C)O)C(=O)N[C@@H](Cc1ccc(O)cc1)C(=O)N[C@@H](CC(C)C)C(=O)N[C@@H](CC(=O)O)C(=O)N[C@@H](CCC(=O)O)C(=O)N[C@@H](CCC(N)=O)C(=O)N[C@H]1CCCCNC(=O)CC[C@@H](C(=O)N[C@@H](Cc2ccccc2)C(=O)N[C@H](C(=O)N[C@@H](CC(N)=O)C(=O)N[C@@H](Cc2c[nH]c3ccccc23)C(=O)N[C@@H](CC(C)C)C(=O)N[C@@H](CC(C)C)C(=O)N[C@@H](C)C(=O)NCC(=O)NCC(=O)N2CCC[C@H]2C(=O)N[C@@H](CO)C(=O)N[C@@H](CO)C(=O)NCC(=O)N[C@@H](C)C(=O)N2CCC[C@H]2C(=O)N2CCC[C@H]2C(=O)N2CCC[C@H]2C(=O)N[C@@H](CO)C(N)=O)C(C)C)NC(=O)[C@H](CCCCN)NC(=O)[C@H](C)NC1=O
B4: mt-164 (peptide)
peptide: Y[Aib]QGTFTSDYSIYLDEQAAKEFVNWLLAG-NH2
modifications: lactam 16-20; N-terminus assumed
SMILES: CC[C@H](C)[C@H](NC(=O)[C@H](CO)NC(=O)[C@H](Cc1ccc(O)cc1)NC(=O)[C@H](CC(=O)O)NC(=O)[C@H](CO)NC(=O)[C@@H](NC(=O)[C@H](Cc1ccccc1)NC(=O)[C@@H](NC(=O)CNC(=O)[C@H](CCC(N)=O)NC(=O)C(C)(C)NC(=O)[C@@H](N)Cc1ccc(O)cc1)[C@@H](C)O)[C@@H](C)O)C(=O)N[C@@H](Cc1ccc(O)cc1)C(=O)N[C@@H](CC(C)C)C(=O)N[C@@H](CC(=O)O)C(=O)N[C@H]1CCC(=O)NCCCC[C@@H](C(=O)N[C@@H](CCC(=O)O)C(=O)N[C@@H](Cc2ccccc2)C(=O)N[C@H](C(=O)N[C@@H](CC(N)=O)C(=O)N[C@@H](Cc2c[nH]c3ccccc23)C(=O)N[C@@H](CC(C)C)C(=O)N[C@@H](CC(C)C)C(=O)N[C@@H](C)C(=O)NCC(N)=O)C(C)C)NC(=O)[C@H](C)NC(=O)[C@H](C)NC(=O)[C@H](CCC(N)=O)NC1=O
B5: mt-167 (peptide)
peptide: YSQGTFTSDYSIYLDEEAAKEFVNWLLAGGPSSGAPPPS-NH2
modifications: lactam 17-20; N-terminus assumed
SMILES: CC[C@H](C)[C@H](NC(=O)[C@H](CO)NC(=O)[C@H](Cc1ccc(O)cc1)NC(=O)[C@H](CC(=O)O)NC(=O)[C@H](CO)NC(=O)[C@@H](NC(=O)[C@H](Cc1ccccc1)NC(=O)[C@@H](NC(=O)CNC(=O)[C@H](CCC(N)=O)NC(=O)[C@H](CO)NC(=O)[C@@H](N)Cc1ccc(O)cc1)[C@@H](C)O)[C@@H](C)O)C(=O)N[C@@H](Cc1ccc(O)cc1)C(=O)N[C@@H](CC(C)C)C(=O)N[C@@H](CC(=O)O)C(=O)N[C@@H](CCC(=O)O)C(=O)N[C@H]1CCC(=O)NCCCC[C@@H](C(=O)N[C@@H](CCC(=O)O)C(=O)N[C@@H](Cc2ccccc2)C(=O)N[C@H](C(=O)N[C@@H](CC(N)=O)C(=O)N[C@@H](Cc2c[nH]c3ccccc23)C(=O)N[C@@H](CC(C)C)C(=O)N[C@@H](CC(C)C)C(=O)N[C@@H](C)C(=O)NCC(=O)NCC(=O)N2CCC[C@H]2C(=O)N[C@@H](CO)C(=O)N[C@@H](CO)C(=O)NCC(=O)N[C@@H](C)C(=O)N2CCC[C@H]2C(=O)N2CCC[C@H]2C(=O)N2CCC[C@H]2C(=O)N[C@@H](CO)C(N)=O)C(C)C)NC(=O)[C@H](C)NC(=O)[C@H](C)NC1=O
B6: mt-163 (peptide)
peptide: YSQGTFTSDYSIYLDEQAAKEFVNWLLAG-NH2
modifications: lactam 16-20; N-terminus assumed
SMILES: CC[C@H](C)[C@H](NC(=O)[C@H](CO)NC(=O)[C@H](Cc1ccc(O)cc1)NC(=O)[C@H](CC(=O)O)NC(=O)[C@H](CO)NC(=O)[C@@H](NC(=O)[C@H](Cc1ccccc1)NC(=O)[C@@H](NC(=O)CNC(=O)[C@H](CCC(N)=O)NC(=O)[C@H](CO)NC(=O)[C@@H](N)Cc1ccc(O)cc1)[C@@H](C)O)[C@@H](C)O)C(=O)N[C@@H](Cc1ccc(O)cc1)C(=O)N[C@@H](CC(C)C)C(=O)N[C@@H](CC(=O)O)C(=O)N[C@H]1CCC(=O)NCCCC[C@@H](C(=O)N[C@@H](CCC(=O)O)C(=O)N[C@@H](Cc2ccccc2)C(=O)N[C@H](C(=O)N[C@@H](CC(N)=O)C(=O)N[C@@H](Cc2c[nH]c3ccccc23)C(=O)N[C@@H](CC(C)C)C(=O)N[C@@H](CC(C)C)C(=O)N[C@@H](C)C(=O)NCC(N)=O)C(C)C)NC(=O)[C@H](C)NC(=O)[C@H](C)NC(=O)[C@H](CCC(N)=O)NC1=O

Bridges are numbered along the chain shown (N, C = ends). Where no end group is shown, it is not given here. [ ]: non-standard residue; d: D form. Aib = CC(C)(N)C(=O)O

Sequence of glucagon receptor (P47871 26-477 limits assumed): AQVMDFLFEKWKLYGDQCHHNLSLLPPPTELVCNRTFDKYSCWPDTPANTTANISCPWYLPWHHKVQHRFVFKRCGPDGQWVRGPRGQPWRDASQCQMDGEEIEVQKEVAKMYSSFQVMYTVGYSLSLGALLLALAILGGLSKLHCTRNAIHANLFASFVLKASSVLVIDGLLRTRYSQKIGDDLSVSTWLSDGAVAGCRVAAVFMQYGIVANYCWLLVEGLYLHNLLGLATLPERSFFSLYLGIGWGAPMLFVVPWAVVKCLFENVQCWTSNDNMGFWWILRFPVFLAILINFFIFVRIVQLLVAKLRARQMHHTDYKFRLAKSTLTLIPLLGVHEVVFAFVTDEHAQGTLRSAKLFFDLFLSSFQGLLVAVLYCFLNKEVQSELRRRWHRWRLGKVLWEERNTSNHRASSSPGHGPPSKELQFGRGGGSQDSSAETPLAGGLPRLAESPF

For the first assay, the target named is T1, GIP receptor. Description: cell-based or functional assay.
For the molecule B1, the 50% effective concentration (EC50) came to 0.074 nM and the relative activity was found to be 27%.
Consider B2, for which a half-maximal effect (EC50) was put at 0.32 nM and the relative activity was determined as 5.94%.
Taken in the same sequence, the figures for B3 were 6.24 nM and 0.32%.
Regarding B4, the response was half-maximal at 0.164 nM (EC50) and the relative activity was determined as 16.5%.
On to B5, for which the midpoint of the response, the EC50, lay at 0.399 nM and the relative activity amounted to 5.01%.
Consider B6, for which the midpoint of the response, the EC50, lay at 0.74 nM and the relative activity is 4.73%.

For a further assay, the target named is GLP-1 receptor (UniProt P43220 24-463, limits assumed). Kind of assay: cell-based or functional assay.
As for B1, the concentration giving a half-maximal response (EC50) is 0.023 nM and the relative activity amounted to 148%.
Take B2: it took 0.134 nM to reach a half-maximal effect (EC50) and the relative activity came out at 26.9%.
Consider B3, for which the half-maximal effective concentration (EC50) was 1.72 nM and the relative activity was found to be 1.45%.
Consider B4, for which it took 0.046 nM to reach a half-maximal effect (EC50) and the relative activity is 56.5%.
In the same order, the values of B5 are 0.315 nM and 7.94%.
With B6, the 50% effective concentration (EC50) is 0.04 nM and the relative activity came to 30%.

The next assay addresses glucagon receptor (UniProt P47871 26-477, limits assumed). Kind of assay: cell-based or functional assay.
B1: the midpoint of the response, the EC50, lay at 0.489 nM and the relative activity is 18.8%.
Take B2: the midpoint of the response, the EC50, lay at 0.875 nM and the relative activity was determined as 9.83%.
Take B3: it took 2.61 nM to reach a half-maximal effect (EC50) and the relative activity came to 4.79%.
In the same order, the values of B4 are 0.151 nM and 110%.
Taken in the same sequence, the figures for B5 were 0.362 nM and 34.5%.
Consider B6, for which the “EC50” value turned out to be 0.027 nM and the relative activity was 252%.
